Laboratory results from article PMC4193212.

Columns and labels:
Experiment in all cases: two-hybrid; split-ubiquitin yeast two-hybrid (DUALhunter), S. cerevisiae NMY51; bait as Cub fusion, prey as NubG fusion; growth on SD-LWHA with 45 and 55 mM 3-AT, 28°C, and β-galactosidase activity (X-gal, ONPG)
[1] = biological target: SV40 LargeT antigen (Cub) (SV40)
[2] = biological target: OpsDHN1-S(ΔH)K3, version without the histidine-rich motif (residues 1-111/138-248), split-ubiquitin fusion (Opuntia streptacantha)
[3] = biological target: Opuntia streptacantha SK3 dehydrin OpsDHN1, full-length version, split-ubiquitin fusion (Opuntia streptacantha)
[4] = biological target: OpsDHN1-SK2, C-terminal truncated version (residues 1-199), split-ubiquitin fusion (Opuntia streptacantha)

| β-galactosidase activity (two-hybrid reporter) (nmol ONP/min/mg protein) [2] | β-galactosidase activity (two-hybrid reporter) (nmol ONP/min/mg protein) [3] | β-galactosidase activity (two-hybrid reporter) (nmol ONP/min/mg protein) [4] | Substance | β-galactosidase activity (two-hybrid reporter) (nmol ONP/min/mg protein) [1] |
| --- | --- | --- | --- | --- |
| – | – | – | tumor suppressor Δp53 (NubG) (domain or fragment) | 656 |
| 70.5 | 462 | 142 | Opuntia streptacantha SK3 dehydrin OpsDHN1, full-length version, split-ubiquitin fusion (natural protein) | – |
| – | 146 | – | OpsDHN1-SK2, C-terminal truncated version (residues 1-199), split-ubiquitin fusion (domain or fragment) | – |
